Data on 1 substance can be found in paper doi:10.1101/829945.

For the experiment, the target named is fibrin fragment E. Put plainly: SPR.

A word on the Kd: it is the concentration at which binding is half-saturated. Low readings indicate a tighter complex, high ones a looser complex.

For “soluble recombinant human αVβ3-integrin (from UniProt P06756 31-1048; P05106 27-718) (receptor)”, the Kd lay in the range of 0.002 to 0.02 µM.
